B1: Protein pop-1 (Caenorhabditis elegans), Q10666 (parent)
chain: MMADEELGDEVKVFRRDEDADDDPMISGETSEQQLADDKKEAVMEAELDGAGRNPSIDVLKSAFPKVEPMSPSFPGLMSHFSPGYSAAALPMFMPLFMNPYAAALRSPSLMFPMGAMSPTFPMFPPSPVYGAAIAAAAAKQHFENMAPLNMRAGHPMNQMGMPPYMHPSSMAPQNVDRRAQGGGKAKKDDHVKKPLNAFMWFMKENRKALLEEIGNNEKQSAELNKELGKRWHDLSKEEQAKYFEMAKKDKETHKERYPEWSARENYAVNKKKTKKRRDKSIPSENNDQKKCRARFGVNNTEMWCKFCKRKKKCEYATDRSGGSDITDSQDGRGTSGAYSSSSESPSPKANAGIALTTQQQQAAMMHTMLMQMRLGSTTGASTHVPSPLASSSAGRSPLDANASDSESDVEEEEDEQIDPTVMQQTHDMLMQESMCTI
partner: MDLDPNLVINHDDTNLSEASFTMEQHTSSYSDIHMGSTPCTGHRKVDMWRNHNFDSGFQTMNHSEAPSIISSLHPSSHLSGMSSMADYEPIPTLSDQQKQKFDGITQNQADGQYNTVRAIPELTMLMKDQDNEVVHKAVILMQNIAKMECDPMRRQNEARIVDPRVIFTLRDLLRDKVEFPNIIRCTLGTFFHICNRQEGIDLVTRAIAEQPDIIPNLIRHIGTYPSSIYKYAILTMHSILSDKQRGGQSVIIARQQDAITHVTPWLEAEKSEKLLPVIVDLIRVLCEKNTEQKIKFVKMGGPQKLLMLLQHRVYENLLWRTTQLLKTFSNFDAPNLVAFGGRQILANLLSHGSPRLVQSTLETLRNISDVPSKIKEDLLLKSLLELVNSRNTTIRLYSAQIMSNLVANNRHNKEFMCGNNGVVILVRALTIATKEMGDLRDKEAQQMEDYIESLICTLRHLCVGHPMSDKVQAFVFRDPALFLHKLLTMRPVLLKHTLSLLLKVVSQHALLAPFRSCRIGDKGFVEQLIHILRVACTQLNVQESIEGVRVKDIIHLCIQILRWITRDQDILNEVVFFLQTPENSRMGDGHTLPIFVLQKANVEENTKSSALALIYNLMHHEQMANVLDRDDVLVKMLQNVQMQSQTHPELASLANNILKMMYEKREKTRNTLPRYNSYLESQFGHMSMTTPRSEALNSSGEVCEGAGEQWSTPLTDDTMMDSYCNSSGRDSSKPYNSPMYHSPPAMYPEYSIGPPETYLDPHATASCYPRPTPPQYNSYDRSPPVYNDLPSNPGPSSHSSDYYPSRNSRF
B2: Protein pop-1 (Caenorhabditis elegans), Q10666 (parent)
chain: B1 chain
partner: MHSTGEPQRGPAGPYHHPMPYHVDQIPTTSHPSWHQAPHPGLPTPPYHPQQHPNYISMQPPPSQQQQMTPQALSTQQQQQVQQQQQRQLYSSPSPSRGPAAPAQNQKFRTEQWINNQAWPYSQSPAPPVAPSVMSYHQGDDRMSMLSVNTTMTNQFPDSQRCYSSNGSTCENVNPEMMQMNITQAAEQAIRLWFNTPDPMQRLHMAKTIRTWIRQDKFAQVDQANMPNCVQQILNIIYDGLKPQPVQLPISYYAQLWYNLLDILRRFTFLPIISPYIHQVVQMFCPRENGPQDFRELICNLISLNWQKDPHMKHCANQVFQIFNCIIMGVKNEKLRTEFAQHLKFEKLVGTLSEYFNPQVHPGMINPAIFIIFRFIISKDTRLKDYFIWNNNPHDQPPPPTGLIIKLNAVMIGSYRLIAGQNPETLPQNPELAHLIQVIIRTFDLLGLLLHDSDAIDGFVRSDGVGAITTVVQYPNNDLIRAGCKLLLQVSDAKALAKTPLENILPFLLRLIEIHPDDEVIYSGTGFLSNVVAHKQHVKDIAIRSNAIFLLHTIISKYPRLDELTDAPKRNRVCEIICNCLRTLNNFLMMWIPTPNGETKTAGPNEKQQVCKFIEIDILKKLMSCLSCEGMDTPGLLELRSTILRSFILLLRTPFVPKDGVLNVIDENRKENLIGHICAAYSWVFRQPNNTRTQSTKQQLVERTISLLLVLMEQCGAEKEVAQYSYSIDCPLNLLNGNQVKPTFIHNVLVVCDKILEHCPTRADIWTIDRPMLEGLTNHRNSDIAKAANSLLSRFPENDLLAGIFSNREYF

Variants of: B1
Settings: with bar1_caeel bar-1, Q18825

Row | effect of a mutation on the interaction | Variant
1 | decreasing interaction strength | D9E

Variants of: B2
Settings: with ctnh1_caeel sys-1, Q9XVI2

Row | effect of a mutation on the interaction | Variant
2 | disrupting interaction strength | D9E
